This is an account of results in patent US20060052286A1, “Factor VII conjugates for selectively treating neovascularization disorders” (Yale University, priority 2004, published 2006).

For test [1], the system named is choroidal neovascularization (CNV) lesions. As to the kind of experiment: Targeted photodynamic therapy of laser-induced CNV lesions in rats (fluorescein angiography). Format: in vivo, Norway-Brown rats. How it is done: CNV lesions were induced by laser photocoagulation of the retina in both eyes of Norway-Brown rats. Group 1: one eye received an intravitreal injection of 10 ul verteporfin conjugated to targeting molecule, and the other eye was used as a control. One hour later some of the lesions were treated with 690 nm laser light, while the other lesions were not irradiated. Group 2: one eye received iv. injection of 0.5 to 1 mg/m^2 verteporfin conjugated with targeting molecule. 15, 30 or 60 minutes later some of the lesions were treated with 690 nm laser light, while the other lesions were not irradiated. The lesions were examined by fluorescein angiography 1, 7 and 14 days later to assess the efficacy of targeted photodynamic therapy. In the case of intravitreal treatment with the same dosage, the effects of targeted photodynamic therapy lasted at least seven days. While there is no effect of PDT in the case of intravitreal injection of free verteporfin, the effects of targeted photodynamic therapy last even longer than 14 days, and the dosage of verteporfin in targeted photodynamic therapy is only 16% as compared to regular PDT verteporfin.
CNV lesions were induced by laser photocoagulation of the retina in both eyes of Norway-Brown rats. Choroidal neovascularization was induced by photocoagulating the posterior pole of rats with argon green laser using a slit lamp and a fundus contact lens to deliver 200-700 mW power for 0.1 second to a 50 μm spot. The power was adjusted to produce a blister or small hemorrhage. If no bleeding was observed, an additional laser-induced lesion was produced next to the first spot. Neovascular membranes usually develop within 2 weeks.
After 4 weeks, FVII-verteporfin conjugate (fVIIPD) at doses of 0.5 or 1 mg/m^2 was injected intravenously into the tail vein of the rats. Some of the CNV lesions were irradiated with 689 nm laser for 83 seconds at 15, 30 or 60 minutes after intravenous injection, while the other lesions were not irradiated (no light controls). Control rats were intravenously injected with Verteporfin (6.0 mg/m2) and laser irradiation was done 15 minutes later. The lesions were examined by fundus photographs and fluorescein angiography 1, 7 and 14 days later to assess the efficacy of ITPT. Choroidal veovascular membranes were treated by intravitreal injection of Verteporfin attached to targeting molecules that bind selectively to the endothelial cells of pathologic vessels. The photosensitizer was activated with an opal laser. A similar experiment was performed by intravitreal injection of fVII-targeted verteporfin.

The target of test [2] is T1, Tissue Factor on the tumor cells (human breast cancer cells) (Homo sapiens, UniProt P13726).
T1 construct: Human Tumor Cells Expressing TF; endogenous in cells
The test can be described thus: Binding to human breast cancer cells expressing TF by flow cytometry. The conditions noted are these: conjugated compared with non-conjugated molecule. As to the method:
mfVIIP was conjugated to verteporfin using the procedure described above. The binding activity of the conjugate to human breast cancer cells was tested by flow cytometry
On the technique in general: In flow cytometry, cells or beads pass a laser one at a time.

T1 sequence (P13726 33-295): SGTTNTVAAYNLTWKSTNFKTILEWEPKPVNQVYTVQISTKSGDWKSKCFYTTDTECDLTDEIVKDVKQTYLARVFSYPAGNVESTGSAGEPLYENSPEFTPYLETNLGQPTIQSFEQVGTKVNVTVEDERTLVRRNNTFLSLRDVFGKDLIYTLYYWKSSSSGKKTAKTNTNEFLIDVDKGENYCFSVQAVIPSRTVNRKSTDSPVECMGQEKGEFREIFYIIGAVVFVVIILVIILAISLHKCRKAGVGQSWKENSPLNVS

Turning to verteporfin [reference compound], in test [1] (intravitreal injection, same dosage), the “effect of PDT” value is reported as “no effect”.

B1: mfVIIPD: verteporfin conjugated via EDC to mfVIIP protein (mouse factor VII with K341A mutation) (conjugate, UniProt P70375 1-446, looked up, variant K341A)
chain: MVPQAHGLLLLCFLLQLQGPLGTAVFITQEEAHGVLHRQRRANSLLEELWPGSLERECNEEQCSFEEAREIFKSPERTKQFWIVYSDGDQCASNPCQNGGTCQDHLKSYVCFCLLDFEGRNCEKSKNEQLICANENGDCDQYCRDHVGTKRTCSCHEDYTLQPDEVSCKPKVEYPCGRIPVVEKRNSSSRQGRIVGGNVCPKGECPWQAVLKINGLLLCGAVLLDARWIVTAAHCFDNIRYWGNITVVMGEHDFSEKDGDEQVRRVTQVIMPDKYIRGKINHDIALLRLHRPVTFTDYVVPLCLPEKSFSENTLARIRFSRVSGWGQLLDRGATALELMSIEVPRLMTQDCLEHAKHSSNTPKITENMFCAGYMDGTKDACAGDSGGPHATHYHGTWYLTGVVSWGEGCAAIGHIGVYTRVSQYIDWLVRHMDSKLQVGVFRLPLL
modifications: verteporfin conjugate; S-peptide and His6 tags
For B1, the “binding activity to human breast cancer cells” value in test [2] was “identical”. The blood vessel leakage result in test [1] (intravitreal injection followed by laser activation, at 7 days) is listed as “completely stopped blood vessel leakage”. The “duration of effects of targeted photodynamic therapy” value in test [1] (intravitreal treatment, 690 nm laser light) was “at least seven”; in test [1] (route not stated in the sentence (apparently iv 0.5 to 1 mg/m^2), verteporfin dosage only 16% of regular PDT), over 14 days.

B2: mfVIIP: mouse factor VII with K341A mutation, ribonuclease S-peptide and 6 Histidines, produced in CHO cells (protein, UniProt P70375 1-446, looked up, variant K341A)
chain: MVPQAHGLLLLCFLLQLQGPLGTAVFITQEEAHGVLHRQRRANSLLEELWPGSLERECNEEQCSFEEAREIFKSPERTKQFWIVYSDGDQCASNPCQNGGTCQDHLKSYVCFCLLDFEGRNCEKSKNEQLICANENGDCDQYCRDHVGTKRTCSCHEDYTLQPDEVSCKPKVEYPCGRIPVVEKRNSSSRQGRIVGGNVCPKGECPWQAVLKINGLLLCGAVLLDARWIVTAAHCFDNIRYWGNITVVMGEHDFSEKDGDEQVRRVTQVIMPDKYIRGKINHDIALLRLHRPVTFTDYVVPLCLPEKSFSENTLARIRFSRVSGWGQLLDRGATALELMSIEVPRLMTQDCLEHAKHSSNTPKITENMFCAGYMDGTKDACAGDSGGPHATHYHGTWYLTGVVSWGEGCAAIGHIGVYTRVSQYIDWLVRHMDSKLQVGVFRLPLL
modifications: S-peptide and His6 tags
notes: mouse factor VII with K341A mutation, ribonuclease S-peptide and 6 Histidines, produced in CHO cells
With B2, in test [2], the “binding activity to human breast cancer cells” value is listed as “identical”.
